Reference: patent US20260242478A1 (published 2026)

Tests used:
[1] = target: T1, Anti-CD28 Fab (SEQ ID NOs: 696, 697); assay: phage ELISA, clonal phage on biotinylated anti-CD28 Fab captured on neutravidin plates;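 note: crude clonal phage supernatants added to wells pretreated with CD28 antigen or with blocking buffer only, bound phage detected by HRP-linked anti-M13 antibody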
T1 construct: Biotinylated and captured on neutravidin coated plates in the phage ELISA
T1 sequence (VH, as listed by the source, chain 1 of 2): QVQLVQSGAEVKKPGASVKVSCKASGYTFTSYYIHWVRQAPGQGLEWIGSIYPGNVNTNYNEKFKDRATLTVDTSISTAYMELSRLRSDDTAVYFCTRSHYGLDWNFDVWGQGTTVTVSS
T1 sequence (VL, as listed by the source, chain 2 of 2): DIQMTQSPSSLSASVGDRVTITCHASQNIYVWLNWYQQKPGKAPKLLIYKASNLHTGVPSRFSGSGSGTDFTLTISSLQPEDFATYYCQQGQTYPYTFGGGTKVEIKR
Experimental: (§1) After panning, phage infected bacteria were plated out and colonies picked into 96 well blocks. Clonal phage was then amplified and separated from bacterial cells via centrifugation.
(§2) Clonal phage were harvested as crude supematants and screened via standard ELISAs. […] Prior to the addition of clonal phage, wells were incubated with blocking buffer and CD28 antigen or blocking buffer alone. Without washing or aspirating, clonal phage supematants were then added to the wells and incubated for a short time. Wells were then washed followed by detection of bound phage using a horse radish conjugated anti-M13 antibody. Clonal phage of interest were then sent for sequence analysis.

[2] = target: T1, Anti-CD28 Fab (SEQ ID NOs: 696, 697); assay: phage ELISA on captured anti-CD28 Fab, wells pre-incubated with CD28 antigen as competitor;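 note: crude clonal phage supernatants added without washing, bound phage read out by HRP-coupled anti-M13 antibody, reference wells given blocking buffer only instead of CD28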
Experimental: as §1, §2

[3] = target: T2, Anti-CD28 Fab (SEQ ID NOs: 696, 697); assay: phage ELISA; biotinylated anti-CD28 Fab on neutravidin plate, clonal phage supernatant, anti-M13 HRP detection;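 note: crude supernatants of single phage clones picked after panning were screened for binding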
T2 construct: In the phage ELISA the Fab was biotinylated and captured on neutravidin coated plates
T2 sequence (VH, as listed by the source, chain 1 of 2): as the sequence (VH, as listed by the source, chain 1 of 2) above
T2 sequence (VL, as listed by the source, chain 2 of 2): as the sequence (VL, as listed by the source, chain 2 of 2) above

[4] = target: T2, Anti-CD28 Fab (SEQ ID NOs: 696, 697); assay: phage ELISA; captured anti-CD28 Fab pre-incubated with CD28 antigen as competitor, anti-M13 HRP detection;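 note: crude clonal phage supernatants screened by ELISA, with wells pre-incubated with CD28 antigen in blocking buffer, compared against wells given blocking buffer alone as control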
Experimental: as §1, §2

[5] = target: T3, Anti-CD28 Fab (SEQ ID NOs: 696, 697); assay: phage ELISA, clonal phage on biotinylated anti-CD28 Fab captured on neutravidin plates;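 note: crude clonal phage supernatants added to wells pretreated with CD28 antigen or with blocking buffer only, bound phage detected by HRP-linked anti-M13 antibody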
T3 construct: In the phage ELISA the Fab was biotinylated and captured on neutravidin coated plates
T3 sequence (VH, as listed by the source, chain 1 of 2): as the sequence (VH, as listed by the source, chain 1 of 2) above
T3 sequence (VL, as listed by the source, chain 2 of 2): as the sequence (VL, as listed by the source, chain 2 of 2) above
Experimental: as §1, §2

[6] = target: T3, Anti-CD28 Fab (SEQ ID NOs: 696, 697); assay: phage ELISA on captured anti-CD28 Fab, wells pre-incubated with CD28 antigen as competitor;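 note: crude clonal phage supernatants added without washing, bound phage read out by HRP-coupled anti-M13 antibody, reference wells given blocking buffer only instead of CD28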
Experimental: as §1, §2

[7] = target: Anti-CD28 Fab (SEQ ID NOs: 696, 697); assay: phage ELISA; biotinylated anti-CD28 Fab on neutravidin plate, clonal phage supernatant, anti-M13 HRP detection;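 note: crude supernatants of single phage clones picked after panning were screened for binding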
Target sequence in this assay (VH, as listed by the source, chain 1 of 2): as the sequence (VH, as listed by the source, chain 1 of 2) above
Target sequence in this assay (VL, as listed by the source, chain 2 of 2): as the sequence (VL, as listed by the source, chain 2 of 2) above

[8] = target: Anti-CD28 Fab (SEQ ID NOs: 696, 697); assay: phage ELISA; Fab-coated wells pre-incubated with CD28 antigen as competitor, anti-M13 HRP detection;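 note: crude clonal phage supernatants screened by ELISA, comparing wells pre-treated with CD28 antigen in blocker against wells given blocker only, bound phage read via HRP-linked anti-M13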
Target sequence in this assay (VH, as listed by the source, chain 1 of 2): as the sequence (VH, as listed by the source, chain 1 of 2) above
Target sequence in this assay (VL, as listed by the source, chain 2 of 2): as the sequence (VL, as listed by the source, chain 2 of 2) above
Experimental: as §1, §2

Binder: YCEGHHRIYMQKCL [Phage-1131]
- Anti-CD28 Fab signal (phage binding ELISA) [1]: 1.26
- Anti-CD28 Fab signal in the presence of CD28 (phage binding ELISA) [2]: 0.07

Binder: YCEGHLPMYMTKCL [Phage-1136]
- Anti-CD28 Fab signal (phage binding ELISA) [1]: 1.25
- Anti-CD28 Fab signal in the presence of CD28 (phage binding ELISA) [2]: 0.06

B1: Phage-1074 (peptide)
peptide: YCDGLFQLYMMKCL
notes: Clonal phage supernatant; not shown: fused to the pIII filament protein of the bacteriophage
- Anti-CD28 Fab signal (phage binding ELISA) [3]: 1.38
- Anti-CD28 Fab signal in the presence of CD28 (phage binding ELISA) [4]: 0.07

B2: Phage-1067 (peptide)
peptide: YCDGHSPEYMQKCL
notes: as for B1
- Anti-CD28 Fab signal (phage binding ELISA) [3]: 1.4
- Anti-CD28 Fab signal in the presence of CD28 (phage binding ELISA) [4]: 0.53

Binder: YCEGHLAEYMNKCL [Phage-1140]
- Anti-CD28 Fab signal (phage binding ELISA) [1]: 1.24
- Anti-CD28 Fab signal in the presence of CD28 (phage binding ELISA) [2]: 0.07

Binder: YCDGHTPEYMWKCL [Phage-1054]
- Anti-CD28 Fab signal (phage binding ELISA) [5]: 1.43
- Anti-CD28 Fab signal in the presence of CD28 (phage binding ELISA) [6]: 0.06

Binder: YCDGHAPQYMRKCL (Tested as clonal phage supernatant) [Phage-1101]
- Anti-CD28 Fab signal (phage binding ELISA) [7]: 1.33
- Anti-CD28 Fab signal in the presence of CD28 (phage binding ELISA) [8]: 0.08

B3: Phage-1069 (peptide)
peptide: YCSGHLPEYMDKCL
notes: as for B1
- Anti-CD28 Fab signal (phage binding ELISA) [3]: 1.39
- Anti-CD28 Fab signal in the presence of CD28 (phage binding ELISA) [4]: 0.07

Binder: YCEGHTQEYMQKCL [Phage-1138]
- Anti-CD28 Fab signal (phage binding ELISA) [1]: 1.24
- Anti-CD28 Fab signal in the presence of CD28 (phage binding ELISA) [2]: 0.07

Binder: YCDGHAPEYLGKCL [Phage-1059]
- Anti-CD28 Fab signal (phage binding ELISA) [5]: 1.41
- Anti-CD28 Fab signal in the presence of CD28 (phage binding ELISA) [6]: 0.06

Binder: YCAGHTAEYMAKCL [Phage-1139]
- Anti-CD28 Fab signal (phage binding ELISA) [1]: 1.24
- Anti-CD28 Fab signal in the presence of CD28 (phage binding ELISA) [2]: 0.08

Binder: YCDGHLLQYMHKCL (Tested as clonal phage supernatant) [Phage-1094]
- Anti-CD28 Fab signal (phage binding ELISA) [7]: 1.35
- Anti-CD28 Fab signal in the presence of CD28 (phage binding ELISA) [8]: 0.07

Binder: YCAGLFEEYMSKCL [Phage-1135]
- Anti-CD28 Fab signal (phage binding ELISA) [1]: 1.25
- Anti-CD28 Fab signal in the presence of CD28 (phage binding ELISA) [2]: 0.06

Binder: YCDGHSEAYIEKCL (Tested as clonal phage supernatant) [Phage-1098]
- Anti-CD28 Fab signal (phage binding ELISA) [7]: 1.34
- Anti-CD28 Fab signal in the presence of CD28 (phage binding ELISA) [8]: 0.06

Binder: YCEGHSPEYMHKCL (Tested as clonal phage supernatant) [Phage-1097]
- Anti-CD28 Fab signal (phage binding ELISA) [7]: 1.34
- Anti-CD28 Fab signal in the presence of CD28 (phage binding ELISA) [8]: 0.09

Binder: YCDGHLPEYMQKCL (Tested as clonal phage supernatant) [Phage-1093]
- Anti-CD28 Fab signal (phage binding ELISA) [7]: 1.35
- Anti-CD28 Fab signal in the presence of CD28 (phage binding ELISA) [8]: 0.08

Binder: YCEGHSQQYMQKCL [Phage-1055]
- Anti-CD28 Fab signal (phage binding ELISA) [5]: 1.42
- Anti-CD28 Fab signal in the presence of CD28 (phage binding ELISA) [6]: 0.08

B4: Phage-1072 (peptide)
peptide: YCDGHNWEYMEKCL
notes: as for B1
- Anti-CD28 Fab signal (phage binding ELISA) [3]: 1.38
- Anti-CD28 Fab signal in the presence of CD28 (phage binding ELISA) [4]: 0.05

Binder: YCDGHSHEYMQKCL [Phage-1061]
- Anti-CD28 Fab signal (phage binding ELISA) [5]: 1.41
- Anti-CD28 Fab signal in the presence of CD28 (phage binding ELISA) [6]: 0.06

Binder: YCQGHSPNYITKCF [Phage-1058]
- Anti-CD28 Fab signal (phage binding ELISA) [5]: 1.41
- Anti-CD28 Fab signal in the presence of CD28 (phage binding ELISA) [6]: 0.06

Binder: YCDGHLDEYMLKCL [Phage-1053]
- Anti-CD28 Fab signal (phage binding ELISA) [5]: 1.43
- Anti-CD28 Fab signal in the presence of CD28 (phage binding ELISA) [6]: 0.06

Binder: YCEGHMSIYMQKCL [Phage-1133]
- Anti-CD28 Fab signal (phage binding ELISA) [1]: 1.25
- Anti-CD28 Fab signal in the presence of CD28 (phage binding ELISA) [2]: 0.07

B5: Phage-1071 (peptide)
peptide: YCEGHHPWYVQKCL
notes: as for B1
- Anti-CD28 Fab signal (phage binding ELISA) [3]: 1.39
- Anti-CD28 Fab signal in the presence of CD28 (phage binding ELISA) [4]: 0.07

B6: Phage-1066 (peptide)
peptide: YCDGHDARYMEKCL
notes: as for B1
- Anti-CD28 Fab signal (phage binding ELISA) [3]: 1.4
- Anti-CD28 Fab signal in the presence of CD28 (phage binding ELISA) [4]: 0.06
